From patent publication US20230391879A1 (INTERVET, published 2023)
Numbering of substitutions follows the chain as printed.

B1: caninized 10A12VH1VL5 (antibody, V domains shown)
VH: EVQLVESGGDLVKPGGSLRLSCVASGFTFSNYYMAWVRQAPGKGLQWVASISTGGGNTYYRDSVKGRFTISRDNAKNTLYLQMNSLRAEDTAMYYCAKHGTLYFDYWGQGTLVTVSS
VL: QPVLTQPPSLSASLGTTARLTCERSSGDIGDSYVSWYQQKPGSPPRDLLYVDDQRPSGVSKSFSGSKDTSANAGLLLISGLQPEDEADYYCQSYDSNIDGPVFGGGTHLTVLG
notes: Caninized antibody, canine IgG-Bm heavy chain and canine lambda light chain; also called c10A12VH1-cIgGBm + c10A12VL5-cCL
B2: caninized 10A12VH1VL6 (antibody, V domains shown)
VH: B1 VH
VL: B1 VL with L48V, L49I, G58E, Y90F
notes: Caninized antibody, canine IgG-Bm heavy chain and canine lambda light chain; also called c10A12VH1-cIgGBm + c10A12VL6-cCL
B3: caninized 10A12VH2VL5 (antibody, V domains shown)
VH: B1 VH with V23A, K98R
VL: B1 VL
notes: Caninized antibody, canine IgG-Bm heavy chain and canine lambda light chain; also called c10A12VH2-cIgGBm + c10A12VL5-cCL
B4: caninized 10A12VH2VL6 (antibody, V domains shown)
VH: B1 VH with V23A, K98R
VL: B1 VL with L48V, L49I, G58E, Y90F
notes: Caninized antibody, canine IgG-Bm heavy chain and canine lambda light chain; also called c10A12; c10A12VH2-cIgGBm + c10A12VL6-cCL
B5: caninized 28F12VH2VK3 (antibody, V domains shown)
VH: EVQLVESGGDLVKPGGSLRLSCAASGFTFSDYYMAWVRQAPGKGLQWVATISYDGSSTYYRDSVRGRFTISRDNAKNTLYLQMNSLRAEDTAMYYCARGPLTDWAPNWFAYWGQGTLVTVSS
VL: DIVMTQSPASLSLSQEEKVTITCQTSEDIYSGLAWYQQKPGQAPKLLIYGASRLEDGVPSRFSGSGSGTDFSFTISSLEPEDVAVYFCQQGLKYPNTFGAGTKVELKR
notes: Caninized antibody, canine IgG-Bm heavy chain and canine kappa light chain; also called c28F12; c28F12VH2-cIgGBm + c28F12VK3-cCK
B6: caninized 28F12VH1VK3 (antibody, V domains shown)
VH: B5 VH with A23V, R98K
VL: B5 VL
notes: Caninized antibody, canine IgG-Bm heavy chain and canine kappa light chain; also called c28F12VH1-cIgGBm + c28F12VK3-cCK
B7: caninized 28F12VH2VK2 (antibody, V domains shown)
VH: B5 VH
VL: B5 VL with D1E, F87Y
notes: Caninized antibody, canine IgG-Bm heavy chain and canine kappa light chain; also called caninized 28F12VH2K2; c28F12
B8: caninized 28F12VH1VK4 (antibody, V domains shown)
VH: B5 VH with A23V, R98K
VL: DIVMTQTPLSLSVSPGETASISCQTSEDIYSGLAWFRQKPGQSPQLLIYGASRLEDGVPDRFSGSGSGTDFTLRISTVEADDTGVYFCQQGLKYPNTFGAGTKVELKR
notes: Caninized antibody, canine IgG-Bm heavy chain and canine kappa light chain; also called c28F12VH1-cIgGBm + c28F12VK4-cCK
B9: caninized 28F12VH2VK4 (antibody, V domains shown)
VH: B5 VH
VL: B8 VL
notes: Caninized antibody, canine IgG-Bm heavy chain and canine kappa light chain; also called c28F12VH2-cIgGBm + c28F12VK4-cCK
B10: caninized 44E2VH2VK1 (antibody, V domains shown)
VH: EVQLVESGGDLVKPEGSLRLSCVVSGFSLTSNGVSWVRQAPGKGLQWIAAISSGGSTYYNSVLKSRLTISRDNAKNTLYLQMNSLRTEDTAVYYCARRLSGYNYVPFAYWGQGTLVTVSS
VL: EIVMTQSPASLSLSQEEKVTITCKASQNIYKHLAWYQQKPGQAPKLLIYNANSLQTGVPSRFSGSGSGTDFSFTISSLEPEDVAVYYCQQYYSGDTFGAGTKVELKR
notes: Caninized antibody, canine IgG-Bm heavy chain and canine kappa light chain; also called c44E2; c44E2VH2-cIgGBm + c44E2VK1-cCK
B11: caninized 44E2VH2VK2 (antibody, V domains shown)
VH: B10 VH
VL: B10 VL with V58I, Y87F
notes: Caninized antibody, canine IgG-Bm heavy chain and canine kappa light chain; also called c44E2; c44E2VH2-cIgGBm + c44E2VK2-cCK
B12: caninized 44E2VH5VK1 (antibody, V domains shown)
VH: ELTLQESGPGLVKPSQTLSLTCTVSGFSLTSNGVSWIRQRPGRGLEWMGAISSGGSTYYNSVLKSRISITADTAKNQFSLQLSSMTTEDTAVYYCARRLSGYNYVPFAYWGQGTLVTVSS
VL: B10 VL
notes: Caninized antibody, canine IgG-Bm heavy chain and canine kappa light chain; also called c44E2VH5-cIgGBm + c44E2VK1-cCK
B13: caninized 44E2VH4VK1 (antibody, V domains shown)
VH: B12 VH with T23V, F27G, L29V
VL: B10 VL
notes: Caninized antibody, canine IgG-Bm heavy chain and canine kappa light chain; also called c44E2VH4-cIgGBm + c44E2VK1-cCK
B14: caninized 44E2VH5VK2 (antibody, V domains shown)
VH: B12 VH
VL: B10 VL with V58I, Y87F
notes: Caninized antibody, canine IgG-Bm heavy chain and canine kappa light chain; also called c44E2; c44E2VH5-cIgGBm + c44E2VK2-cCK
B15: 44E2 (antibody, V domains shown)
VH: QVQLKESGPGLVQPSQTLSLTCTVSGFSLTSNGVSWVRQPPGKGLEWIAAISSGGSTYYNSVLKSRLSISRDTSKSQVFLKMNSLQTEDTAIYFCTRRLSGYNYVPFAYWGQGTLVTVSS
VL: DIQMTQSPSLLSASVGDRVTLNCKASQNIYKHLAWCQQKLGEPPNLLISNANSLQTGIPSRFSGSGSGTDFTLTISSLQPEDVATYFCQQYYSGDTFGAGTKLELK
notes: Rat monoclonal antibody from a hybridoma; also called rat mAb 44E2
B16: 47F3 (antibody, V domains shown)
VH: EVQLVESGGGLVQPGRSMKLSCVASGFTFSNYYMAWVRQAPTKGLEWVASISTGGGNTYYRDSVKGRFTISRDNAKSTLYLQMDSLRSEDTATYYCARHGTLYFDYWGQGVMVTVS
VL: QFTLTQPKSVSGSLRSTITIPCERSSGDIGNTYVSWYQQHLGRPPINVIYADDQRPSEVSDRFSGSIDSSSNSASLTITNLQMDDEADYFCQSYDSNIDGPVFGGGTKLTVL
notes: Rat monoclonal antibody from a hybridoma; also called rat mAb 47F3
B17: 51G4 (antibody, V domains shown)
VH: EVQLVESGGGLVQPGRSMKLSCAALGFTFSNYYMAWVRQAPTKGLEWVASISTGGGNTYYRDSVKGRFTISRDNAKNTLYLQMDSLRSEDTATYYCARHGTIAAMDYWGQGVMVTVSS
VL: B16 VL with S25N, S26N, N31D, T32S, N47I
notes: Rat monoclonal antibody from a hybridoma; also called rat mAb 51G4
B18: 53B3 (antibody, V domains shown)
VH: B17 VH with L25F, S30N, Y59F, A75V, N77S, T78I, Y80S
VL: B16 VL with S25T, N31D, T32N
notes: Rat monoclonal antibody from a hybridoma; also called rat mAb 53B3
B19: 48B1 (antibody, V domains shown)
VH: EVQLVESGGGLVQPGRTLKLFCVASGFTFNNYWMTWIRQAPGKGLEWVASITNTGGSTYYPDSVKGRFTISRDNAKSTLYLQMNSLRSEDTATYYCTRGPDYGGHLNWFVYWGQGTLVTVSS
VL: DIVMTQSPTSMSISVGDRVTMNCKASQNVGSNVDWYQQKTGQSPKLLIYKASNRYTGVPDRFTGSGSGTDFTFTISNMQAEDLAVYYCMQSNSYPPTFGGGTKLELK
notes: Rat monoclonal antibody from a hybridoma; also called rat mAb 48B1
B20: 7D7 (antibody, V domains shown)
VH: B19 VH with T17S, F21S, Y59F, V110A
VL: B19 VL with V15A, F62C
notes: Rat monoclonal antibody from a hybridoma; also called rat mAb 7D7
B21: 22B4 (antibody, V domains shown)
VH: B19 VH with T17S, F21S, N31K, T58S, P61S, D90E, V110A
VL: B19 VL with Q38E, L47V
notes: Rat monoclonal antibody from a hybridoma; also called rat mAb 22B4
B22: 28F12 (antibody, V domains shown)
VH: EVQLVESDGGLAQPGRSLKLSCAASGFTFSDYYMAWVRQAPTKGLEWVATISYDGSSTYYRDSVRGRFTISRDNAKSTLYLQMDSLRSEDTATYYCARGPLTDWAPNWFAYWGQGTLVTVSS
VL: DIQMTQSPASLSASLGETVTIQCQTSEDIYSGLAWYQQKPGKSPQFLIYGASRLEDGVPSRFSGSGSGTQYSLKISSMQTEDEGVYFCQQGLKYPNTFGAGTKLELK
notes: Rat monoclonal antibody from a hybridoma; also called rat mAb 28F12
B23: 4G7 (antibody, V domains shown)
VH: EVQLQQYGAELGKPGTSVKLSCKVSGYNIRSTFMHWVNQRPGKGLEWIGRIDPVNGNTIYSEKFKSKATLTADTSSNTAYMQLSQLKSDDTAIYFCAMFNYAGHSGDYWGQGVMVTVSS
VL: DIQMTQSPSSMSVSLGDTVTITCRASQDVGIYVNWFQQKPGKSPRRMIYRATNLADGVPSRFSGSRSGSDYSLTISSLESEDVADYHCLQYDEYPYTFGAGTKLELK
notes: Rat monoclonal antibody from a hybridoma; also called rat mAb 4G7
B24: 49D3 (antibody, V domains shown)
VH: EVQLVESGGGLVQPGRSMKLSCAASGFTFSNYYMAWVRQAPTKGLEWVASISTGGGNTYYRDSVKGRFTISRDNAKSTLYLQMDSLRSEDTATYYCARHGTLYFDYWGQGVMVTVSS
VL: B16 VL with N31D, T32S
notes: Rat monoclonal antibody from a hybridoma; also called rat mAb 49D3
B25: 10A12 (antibody, V domains shown)
VH: B24 VH with Q13K, S77R, A97G
VL: B16 VL with N31D, T32S, A51V, N80D
notes: Rat monoclonal antibody from a hybridoma; also called rat mAb 10A12
B26: 27A10 (antibody, V domains shown)
VH: B24 VH with A23T, S88A, G100T, T101M, L102G
VL: B16 VL with N31D, T32N, S96G, N97K, D99E, G100I
notes: Rat monoclonal antibody from a hybridoma; also called rat mAb 27A10
B27: 20B8 (antibody, V domains shown)
VH: EVQLVESGGGLVQPGRSLKLSCVASGFTFNNYWMTWIRQAPGKGLEWVASITNTGGSTYYPDSVKGRFTISRDNAKSTLYLQMNSLRSEDTATYYCTRGPTTVVGGWFAYWGQGTLVTVSS
VL: B19 VL with K50R, A51P
notes: Rat monoclonal antibody from a hybridoma; also called rat mAb 20B8

Molecular target: T1, Canine IL-31RA ECD-10His (canine)
T1 construct: made in HEK-293 or CHO cells and coated on the ELISA plates; also called canine IL-31 receptor alpha extracellular domain HIS-tagged protein; cIL-31RA
T1 chain: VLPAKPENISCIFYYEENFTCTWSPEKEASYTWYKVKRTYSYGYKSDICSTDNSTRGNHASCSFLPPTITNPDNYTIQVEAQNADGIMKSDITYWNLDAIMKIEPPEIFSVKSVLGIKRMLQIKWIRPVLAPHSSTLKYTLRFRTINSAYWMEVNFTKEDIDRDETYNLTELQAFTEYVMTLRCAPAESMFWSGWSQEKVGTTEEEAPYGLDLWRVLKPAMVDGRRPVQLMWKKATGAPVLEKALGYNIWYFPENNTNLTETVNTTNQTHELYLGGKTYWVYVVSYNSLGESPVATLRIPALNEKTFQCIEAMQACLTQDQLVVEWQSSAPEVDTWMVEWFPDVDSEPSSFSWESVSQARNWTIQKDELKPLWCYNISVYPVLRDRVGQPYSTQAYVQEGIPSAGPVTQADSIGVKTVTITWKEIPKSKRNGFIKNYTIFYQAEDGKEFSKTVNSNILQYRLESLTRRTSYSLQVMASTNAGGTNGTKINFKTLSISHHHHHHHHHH
Assay: ELISA (FIG. 6A)

Binding result, binds:
B1
B2
B3
B4

Molecular target: T1, Canine IL-31RA ECD-10His
Assay: ELISA (FIG. 6B)

Binding result, binds:
B5
B6
B7
B8
B9

Molecular target: T1, Canine IL-31RA ECD-10His
Assay: ELISA (FIG. 6C)

Binding result, binds:
B10
B11
B12
B13
B14

Molecular target: T1, Canine IL-31RA ECD-10His
Assay: ELISA, IL-31RA coated

Binding result, binds:
B15
B16
B17
B18
B19
B20
B21
B22
B23
B24
B25
B26
B27
